Test results from patent US20250368744A1 (CONCEPT TO MEDICINE BIOTECH, published 2025).

B1: Hu195H8D10-7 (antibody, V domains shown)
VH: EVQLVESGGGLVQPGGSLRLSCAASGFNFNTYVMNWVRQAPGKGLEWVARIRTKSNNYATYYADSVKDRFTISRDDSKNSLYLQMNSLKTEDTAVYYCVSGTITRLGGGLDYWGQGTLVTVSS
VL: DIVMTQSPLSLPVTPGEPASISCRSSKRLLHSNGNTYLYWYLQKPGQSPQLLIYRMSNLASGVPDRFSGSGSGTAFTLKISRVEAEDVGVYYCMQHLEYPFTFGGGTKLEIK
notes: humanized
B2: Hu195H8D10-5 (antibody, V domains shown)
VH: EVQLVESGGGLVQPGGSLRLSCAASGFNFNTYVMNWVRQAPGKGLEWVARIRTKSNNYATYYADSVKDRFTISRDDSKNSLYLQMNSLKTEDTAVYYCVSGTITRLGGGLDYWGQGTLVTVSS
VL: DIVMTQSPLSLPVTPGEPASISCRSSKRLLHSNGNTYLYWYLQKPGQSPQLLIYRMSNLASGVPDRFSGSGSGTDFTLKISRVEAEDVGVYYCMQHLEYPFTFGGGTKLEIK
notes: humanized
B3: Hu200C9B9-4 (antibody, V domains shown)
VH: EVQLVESGGGLVQPGGSLRLSCAASGFSFNTYVMNWVRQAPGKGLEWVGRIRTKSNNYATFYVDSVKDRFTISRDDSKNSLYLQMNSLKTEDTAVYYCARGTITRLGAGLDYWGQGTLVTVSS
VL: DIVMTQSPLSLPVTPGEPASISCRSSKSLLHSNGNTYLYWFLQKPGQSPQLLIYRMSNLASGVPDRFSGSGSGTAFTLKISRVEAEDVGVYYCMQHLEYPFTFGGGTKLEIK
notes: humanized
B4: Hu195H8D10-3 (antibody, V domains shown)
VH: EVQLVESGGGLVQPGGSLRLSCAASGFNFNTYVMNWVRQAPGKGLEWVGRIRTKSNNYATYYADSVKDRFTISRDDSKNSLYLQMNSLKTEDTAVYYCARGTITRLGGGLDYWGQGTLVTVSS
VL: DIVMTQSPLSLPVTPGEPASISCRSSKRLLHSNGNTYLYWYLQKPGQSPQLLIYRMSNLASGVPDRFSGSGSGTAFTLKISRVEAEDVGVYYCMQHLEYPFTFGGGTKLEIK
notes: humanized
B5: Hu195H8D10-16 (antibody, V domains shown)
VH: EVQLVESGGGLVQPGGSLRLSCAASGFNFNTYVMNWVRQAPGKGLEWVARIRTKSNNYATYYADSVKDRFTISRDDSESSLYLQMNSLKTEDTAMYYCVSGTITRLGGGLDYWGQGTLVTVSS
VL: DIVMTQSPLSLPVTPGEPASISCRSSKRLLHSNGNTYLYWFLQKPGQSPQLLIYRMSNLASGVPDRFSGSGSGTAFTLKISRVEAEDVGVYYCMQHLEYPFTFGGGTKLEIK
notes: humanized
B6: Hu195H8D10-6 (antibody, V domains shown)
VH: EVQLVESGGGLVQPGGSLRLSCAASGFNFNTYVMNWVRQAPGKGLEWVARIRTKSNNYATYYADSVKDRFTISRDDSKNSLYLQMNSLKTEDTAVYYCVSGTITRLGGGLDYWGQGTLVTVSS
VL: DIVMTQSPLSLPVTPGEPASISCRSSKRLLHSNGNTYLYWFLQKPGQSPQLLIYRMSNLASGVPDRFSGSGSGTDFTLKISRVEAEDVGVYYCMQHLEYPFTFGGGTKLEIK
notes: humanized
B7: Hu195H8D10-4 (antibody, V domains shown)
VH: EVQLVESGGGLVQPGGSLRLSCAASGFNFNTYVMNWVRQAPGKGLEWVGRIRTKSNNYATYYADSVKDRFTISRDDSKNSLYLQMNSLKTEDTAVYYCARGTITRLGGGLDYWGQGTLVTVSS
VL: DIVMTQSPLSLPVTPGEPASISCRSSKRLLHSNGNTYLYWFLQKPGQSPQLLIYRMSNLASGVPDRFSGSGSGTAFTLKISRVEAEDVGVYYCMQHLEYPFTFGGGTKLEIK
notes: humanized
B8: Hu195H8D10-2 (antibody, V domains shown)
VH: EVQLVESGGGLVQPGGSLRLSCAASGFNFNTYVMNWVRQAPGKGLEWVGRIRTKSNNYATYYADSVKDRFTISRDDSKNSLYLQMNSLKTEDTAVYYCARGTITRLGGGLDYWGQGTLVTVSS
VL: DIVMTQSPLSLPVTPGEPASISCRSSKRLLHSNGNTYLYWFLQKPGQSPQLLIYRMSNLASGVPDRFSGSGSGTDFTLKISRVEAEDVGVYYCMQHLEYPFTFGGGTKLEIK
notes: humanized
B9: Hu195H8D10-11 (antibody, V domains shown)
VH: EVQLVESGGGLVQPGGSLRLSCAASGFNFNTYVMNWVRQAPGKGLEWVARIRTKSNNYATYYADSVKDRFTISRDDSKSSLYLQMNSLKTEDTAVYYCVSGTITRLGGGLDYWGQGTLVTVSS
VL: DIVMTQSPLSLPVTPGEPASISCRSSKRLLHSNGNTYLYWYLQKPGQSPQLLIYRMSNLASGVPDRFSGSGSGTAFTLKISRVEAEDVGVYYCMQHLEYPFTFGGGTKLEIK
notes: humanized
B10: Hu200C9B9-7 (antibody, V domains shown)
VH: EVQLVESGGGLVQPGGSLRLSCAASGFSFNTYVMNWVRQAPGKGLEWVARIRTKSNNYATFYVDSVKDRFTISRDDSKNSLYLQMNSLKTEDTAVYYCVSGTITRLGAGLDYWGQGTLVTVSS
VL: DIVMTQSPLSLPVTPGEPASISCRSSKSLLHSNGNTYLYWYLQKPGQSPQLLIYRMSNLASGVPDRFSGSGSGTAFTLKISRVEAEDVGVYYCMQHLEYPFTFGGGTKLEIK
notes: humanized
B11: Hu195H8D10-8 (antibody, V domains shown)
VH: EVQLVESGGGLVQPGGSLRLSCAASGFNFNTYVMNWVRQAPGKGLEWVARIRTKSNNYATYYADSVKDRFTISRDDSKNSLYLQMNSLKTEDTAVYYCVSGTITRLGGGLDYWGQGTLVTVSS
VL: DIVMTQSPLSLPVTPGEPASISCRSSKRLLHSNGNTYLYWFLQKPGQSPQLLIYRMSNLASGVPDRFSGSGSGTAFTLKISRVEAEDVGVYYCMQHLEYPFTFGGGTKLEIK
notes: humanized
B12: Hu200C9B9-6 (antibody, V domains shown)
VH: EVQLVESGGGLVQPGGSLRLSCAASGFSFNTYVMNWVRQAPGKGLEWVARIRTKSNNYATFYVDSVKDRFTISRDDSKNSLYLQMNSLKTEDTAVYYCVSGTITRLGAGLDYWGQGTLVTVSS
VL: DIVMTQSPLSLPVTPGEPASISCRSSKSLLHSNGNTYLYWFLQKPGQSPQLLIYRMSNLASGVPDRFSGSGSGTDFTLKISRVEAEDVGVYYCMQHLEYPFTFGGGTKLEIK
notes: humanized
B13: Hu200C9B9-13 (antibody, V domains shown)
VH: EVQLVESGGGLVQPGGSLRLSCAASGFSFNTYVMNWVRQAPGKGLNWVARIRTKSNNYATFYVDSVKDRFTISRDDSENSLYLQMNSLKTEDTAVYYCVSGTITRLGAGLDYWGQGTLVTVSS
VL: DIVMTQSPLSLPVTPGEPASISCRSSKSLLHSNGNTYLYWYLQKPGQSPQLLIYRMSNLASGVPDRFSGSGSGTDFTLKISRVEAEDVGVYYCMQHLEYPFTFGGGTKLEIK
notes: humanized
B14: Hu195H8D10-9 (antibody, V domains shown)
VH: EVQLVESGGGLVQPGGSLRLSCAASGFNFNTYVMNWVRQAPGKGLEWVARIRTKSNNYATYYADSVKDRFTISRDDSKSSLYLQMNSLKTEDTAVYYCVSGTITRLGGGLDYWGQGTLVTVSS
VL: DIVMTQSPLSLPVTPGEPASISCRSSKRLLHSNGNTYLYWYLQKPGQSPQLLIYRMSNLASGVPDRFSGSGSGTDFTLKISRVEAEDVGVYYCMQHLEYPFTFGGGTKLEIK
notes: humanized
B15: Hu195H8D10-10 (antibody, V domains shown)
VH: EVQLVESGGGLVQPGGSLRLSCAASGFNFNTYVMNWVRQAPGKGLEWVARIRTKSNNYATYYADSVKDRFTISRDDSKSSLYLQMNSLKTEDTAVYYCVSGTITRLGGGLDYWGQGTLVTVSS
VL: DIVMTQSPLSLPVTPGEPASISCRSSKRLLHSNGNTYLYWFLQKPGQSPQLLIYRMSNLASGVPDRFSGSGSGTDFTLKISRVEAEDVGVYYCMQHLEYPFTFGGGTKLEIK
notes: humanized
B16: Hu195H8D10-12 (antibody, V domains shown)
VH: EVQLVESGGGLVQPGGSLRLSCAASGFNFNTYVMNWVRQAPGKGLEWVARIRTKSNNYATYYADSVKDRFTISRDDSKSSLYLQMNSLKTEDTAVYYCVSGTITRLGGGLDYWGQGTLVTVSS
VL: DIVMTQSPLSLPVTPGEPASISCRSSKRLLHSNGNTYLYWFLQKPGQSPQLLIYRMSNLASGVPDRFSGSGSGTAFTLKISRVEAEDVGVYYCMQHLEYPFTFGGGTKLEIK
notes: humanized
B17: Hu200C9B9-9 (antibody, V domains shown)
VH: EVQLVESGGGLVQPGGSLRLSCAASGFSFNTYVMNWVRQAPGKGLNWVARIRTKSNNYATFYVDSVKDRFTISRDDSKNSLYLQMNSLKTEDTAVYYCVSGTITRLGAGLDYWGQGTLVTVSS
VL: DIVMTQSPLSLPVTPGEPASISCRSSKSLLHSNGNTYLYWYLQKPGQSPQLLIYRMSNLASGVPDRFSGSGSGTDFTLKISRVEAEDVGVYYCMQHLEYPFTFGGGTKLEIK
notes: humanized
B18: Hu195H8D10-15 (antibody, V domains shown)
VH: EVQLVESGGGLVQPGGSLRLSCAASGFNFNTYVMNWVRQAPGKGLEWVARIRTKSNNYATYYADSVKDRFTISRDDSESSLYLQMNSLKTEDTAMYYCVSGTITRLGGGLDYWGQGTLVTVSS
VL: DIVMTQSPLSLPVTPGEPASISCRSSKRLLHSNGNTYLYWYLQKPGQSPQLLIYRMSNLASGVPDRFSGSGSGTAFTLKISRVEAEDVGVYYCMQHLEYPFTFGGGTKLEIK
notes: humanized
B19: Hu200C9B9-3 (antibody, V domains shown)
VH: EVQLVESGGGLVQPGGSLRLSCAASGFSFNTYVMNWVRQAPGKGLEWVGRIRTKSNNYATFYVDSVKDRFTISRDDSKNSLYLQMNSLKTEDTAVYYCARGTITRLGAGLDYWGQGTLVTVSS
VL: DIVMTQSPLSLPVTPGEPASISCRSSKSLLHSNGNTYLYWYLQKPGQSPQLLIYRMSNLASGVPDRFSGSGSGTAFTLKISRVEAEDVGVYYCMQHLEYPFTFGGGTKLEIK
notes: humanized
B20: Hu195H8D10-1 (antibody, V domains shown)
VH: EVQLVESGGGLVQPGGSLRLSCAASGFNFNTYVMNWVRQAPGKGLEWVGRIRTKSNNYATYYADSVKDRFTISRDDSKNSLYLQMNSLKTEDTAVYYCARGTITRLGGGLDYWGQGTLVTVSS
VL: DIVMTQSPLSLPVTPGEPASISCRSSKRLLHSNGNTYLYWYLQKPGQSPQLLIYRMSNLASGVPDRFSGSGSGTDFTLKISRVEAEDVGVYYCMQHLEYPFTFGGGTKLEIK
notes: humanized
B21: Hu200C9B9-16 (antibody, V domains shown)
VH: EVQLVESGGGLVQPGGSLRLSCAASGFSFNTYVMNWVRQAPGKGLNWVARIRTKSNNYATFYVDSVKDRFTISRDDSENSLYLQMNSLKTEDTAVYYCVSGTITRLGAGLDYWGQGTLVTVSS
VL: DIVMTQSPLSLPVTPGEPASISCRSSKSLLHSNGNTYLYWFLQKPGQSPQLLIYRMSNLASGVPDRFSGSGSGTAFTLKISRVEAEDVGVYYCMQHLEYPFTFGGGTKLEIK
notes: humanized

What follows are binders tested against T1, human C-C motif chemokine receptor 8 (CCR8) (human, UniProt P51685 1-355) (assay: FACS (MFI-PE) on CHO-K1 hCCR8 cells, bars at five doses).
T1 construct: whole, on cells; also called human CCR8; hCCR8
T1 sequence (P51685 whole entry): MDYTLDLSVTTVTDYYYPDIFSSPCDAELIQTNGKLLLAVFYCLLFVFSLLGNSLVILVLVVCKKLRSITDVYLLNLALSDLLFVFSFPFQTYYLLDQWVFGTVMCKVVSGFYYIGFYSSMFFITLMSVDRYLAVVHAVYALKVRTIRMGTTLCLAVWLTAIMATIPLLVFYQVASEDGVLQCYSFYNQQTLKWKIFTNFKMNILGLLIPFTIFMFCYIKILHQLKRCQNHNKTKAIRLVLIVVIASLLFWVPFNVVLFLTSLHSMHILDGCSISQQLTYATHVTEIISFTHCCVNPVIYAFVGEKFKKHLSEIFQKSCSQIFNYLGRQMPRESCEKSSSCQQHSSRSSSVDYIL
Method: PE Goat anti-Human IgG Fc Secondary Antibody (eBioscience™, Invitrogen) was added to each well and incubated at 4° C. for 30 mins. Samples were washed twice with FACS buffer. The mean florescence intensity (MFI) of PE was evaluated by MACSQuant Analyzer 16.
B1: binds. B2: binds. B3: binds. B4: binds. B5: binds. B6: binds. B7: binds. B8: binds. B9: binds. B10: binds. B11: binds. B12: binds. B13: binds. B14: binds. B15: binds. B16: binds. B17: binds. B18: binds. B19: binds. B20: binds. B21: binds.
